{"source": "paper PMC3795569", "about": "“Crystal structure of the N-terminal domain of MinC dimerized via domain swapping” (Journal of Synchrotron Radiation, 2013)", "proteins": {"B1": {"name": "Escherichia coli MinC N-terminal domain (EcoMinCNTD), residues 1-105 (domain or fragment, UniProt P18196 1-105, looked up)", "chain": "MSNTPIELKGSSFTLSVVHLHEAEPKVIHQALEDKIAQAPAFLKHAPVVLNVSALEDPVNWSAMHKAVSATGLRVIGVSGCKDAQLKAEIEKMGLPILTEGKEKA", "notes": "MinC (septum site-determining protein), Escherichia coli, N-terminal domain, residues 1-105; amplified from E. coli genomic DNA (ATCC No. 700926D-5); Cloned into a modified pET-28a vector (BamHI/XhoI); The printed molecular weight is 11863 Da; also called unfused-EcoMinCNTD; source: E. coli BL21 (DE3), purified (Ni-NTA, TEV cleavage, size-exclusion chromatography)"}}, "molecular_target": "the molecule itself", "assay": "SEC; size-exclusion chromatography of EcoMinCNTD in a broad range of protein concentrations", "data": [{"protein": "B1", "values": [{"measurement": "stoichiometry N", "result": 2}]}]}
